Test results as given in the DeepSol protein solubility set.

Assay: soluble on expression in E. coli; label from the status in PepcDB or PDB records

Row | Sequence | soluble on expression in E. coli
1 | MSENIRESISAKTLSKDQMETSYVSLKTWIEDSLDLFKNDLLPLLYPLFIHIYFDLIQQNKTDEAKEFFEKYRGDHYNKSEEIKQFESIYTVQHIHENNFAYTFKNSKYHLSMGRYAFDLLINFLEERNLTYILKILNQHLDIKVYVGPKSEERPQGIETSVVDAEIDLTTFLVSRECEDAILGDEQYRYDHLETYVLQLRKQREMKPKDSVYKPNASQIHAEIEKLKDLCKRVAVNKNNLPSICCYTIHNTYEGLTAAEISNDLKLMACGFKDSYVEVYSLTNESLKKLKSSSELAKSDIKTLNEEKFEEVGSSYKLVGHSGPVYGLKFFSSNKFLVSSSQDCTVCLWSLDLLCLLAVYKAHAFPVWCVDVAPNDYFFASGAGDRQAIVWSVMTSKPERLIISSLSDVTAVKFHPNSSYLFTGSSDHRVRMHDISTASVVRIFCGHTDTVTCMDVSHCGKFLASGSKDRTVLLWDIQSSKLLGKYVGHENTVFSVSFCFYGSVLASCGADNSVRLWDRTDHKGGCLGTYYTKNTPLLCVKFGYRNIISCTGPFIS | soluble
2 | MGSDKIHHHHHHMKNLLSTREVAQFLGVNEKMVYTLISDKGLPATKVTGKWLFPAHLVEQWVENSTINFPRRHESAPPAEGVLLVAGSNDILFERTLRLFMDAQPDYIAAFANMGSMGGIKALRRGVCHMATSHLKQEDGAEYNFAHAERELEERPAVVNFCLREQGLLVPRGNPAGISCVADVAGGGLTVANRPLGTGTRLLFDSELAAAGINPARLKGYENEFSRHMDVGLEVLSGRADTAPAIRAVAGLLGLDFIPLGWERFDLLIPRDTFFERHIQLFMGLFTTPEFAALAGQLEGYDTSRAGRVVFPGETLRETRR | not soluble
3 | MGSDKIHHHHHHMKSHIGLIGLAVMGQNLALNIARKGYKVSVYNRTAQRTEEFVKNRVTNEEIEPHYDIESFVKSLERPRKIILMVKAGKPVDDTISQLLPHLEPGDLIIDGGNSHYMDTERRFKELSEKGILFLGMGVSGGEYGALHGPSLMPGGSREAYNLVEEILLEIAAKTEDGPCCTYVGERSAGHFVKMVHNGIEYAIMQAIAEVYHIMRDVLSLSSEEMSSIFEEWNRGELSSFLVEITYKILRKKDEETGKPMVDVILDKAEQKGTGKWTSQAALDLGIPTPSINLAVVERVISHFKDIRTRLSKLYNKRRSATQGSEEFLRDLRNSLFFAMFMAFSQGMWLIAEASKEFGYGVSLSEVLRIWKGGCIIRAKLIDTLRRYISNENAYLLENEEVMNLLKGKIDSLKNILKASIENEIPVPVLSSSYNYFMSLTEERLPANLIQAQRDFFGAHTFERVDREGVFHINWEEGEIG | not soluble
4 | MATEQHLRQQLAAAYRLAALFGWEDTLYTHFSVRLPGDGEPRFLINPFGMMFDEVTASNLIVVDMQGKVVAGDAPANSAGFTIHSAVHMAREDAHCVIHTHTLPGMAVAACEDGLLQLNQISTEFYQRVGYHPYEGVAFDLDERARIQRSLGNNIAMILQSHGLLSVGRTVADAFYIMYYLNRACEIQMATAQLAALSPIHTIAPHLSQHACEQLMGVEHERQQVWQAWLRRLDRLDTSYKD | not soluble
5 | MGSDKIHHHHHHMVEHRGFDVLSLPWLDVPRQAFLTQLQTQKVPHAQLVGIDSAYGGELLSVFMARAAMCSQPTHTGGCGFCKSCQLFDAGNHPDFYQIEADGHQIKVDQIRELCSRLSATAQQSGRRVAIIHHSERLNSASANALLKTLEEPGKDTLLLLHSDTPARLMATISSRCQRLPFVAPSKTLIKNWLIQQCQIQEDVTWCLSVVGGPLKLAESLQSNSTQPSRYQTLLGFRKDWAQSLSSGHLCASLLIISEQQIIDALKVLYLLLRQILLKNGNQDAYVQAQIGNLAAKVMGMCHSLSAMPSVNYLGLCQSYVLEYRDITNK | not soluble
6 | KKNYALSFNANVGFNKNKVKSLGSLMDYSADSGWASTDIQSDFKVQPGHSVGEIYGFVSDGRYEVSDFEGFIDGKWVLKAGVADASDIIGEKYLRPGAMKLKNVDGSEDNKVTKDDQKVIGDTNPFCSGGFSVNARVYGFDLTANFTYSIGNDIYNANKIEYTSSSKYKYRNMIDVMAEEKRWTNLNADGTICNDPTQLAAMNANTSMWSPWTQKYVLTDWAVEDGSFLRLATLSIGYTLPQTLTRKVGIQNLRFYATGYNLFCITNYSGFDPEVSTRTKSALTPGVDYSAYPRSRQYVIGLNLTF | not soluble
7 | MGSDKIHHHHHHMTTSTGKINLLGLTQPEMEQFFDSIGEKRFRAGQVMKWIHHFGVSDFAAMTNVGKVLREKLEAVAEIRPPEVVSEDISADGTRKWVIRVASGSCVETVYIPTDDRGTLCVSSQAGCALDCSFCSTGKQGFNSNLTAAEVIGQVWLANKSFGTVPAKVDRAITNVVMMGMGEPLLNFDNVIAAMKIMMDDLGYGISKRRVTLSTSGVVPMIDELAKHIDVSLALSLHAPNDELRNKLVPINKKYPLKVLLESCMGYMSTLGGKRVLTVEYTLLKDVNDQPEHAAQMIELLRDVPCKINLIPFNPFPHSGYERPSNNAIRRFQDLLHHGGFNVTTRTTRGDDIDAACGQLVGQVNDRTRRSERYIAVRQLSADVELPDSAASH | not soluble
8 | MMGVKAEALTGGFSSAVFDSQRIFKKLMDGMARPGTPQTIETAVAPPLPLAAATGAVLLALCDHDTPVWLNGALRKTAVPGWIGFHTGAPATEEKGAAHFAVIEAGSAIASFGLFAQGSQEYPDRSTTLIIELSDLDGGRELLLSGPGIRHVNIISPSGLPDIFPMLWAENNAIFPRGVDVILTAGDKFVCLPRTTRIKPVEA | not soluble
9 | MRNFKKPDVLVSKCLEHGRCRYDGQMISSDFVKSTKKYFNYVPVCPEVEIGLSIPRNSLKIVFENEKFEFVQNITNNNYTSKITQFSSDFLDSIENIDGAVLKHKSPSCGIKNVKVYTAKGNPTNQKTEGFFAKEVLYRYSNIAIEEESRLRNKRIKDHFLTKLYTIKDFKEVKESESIKNLIEFHTNNKFLFMAYNQKQKDILGNIVGNHNKNFDKIIKLYEKHLQLLLKRPSAIGSNINVLMHIFGYMSNKISKDEKLLFIDSLQRYHDELDCLCVPIILLKSWVIRFNVDYLKKQTYFEPFPQELADNSEMFKRDYWND | not soluble
10 | MSLKIFGTDGVRGKAGVKLTPMFVMRLGIAAGLYFKKHSQTNKILIGKDTRKSGYMVENALVSALTSIGYNVIQIGPMPTPAIAFLTEDMRCDAGIMISASHNPFEDNGIKFFNSYGYKLKEEEEKAIEEIFHDEELLHSSYKVGESVGSAKRIDDVIGRYIAHLKHSFPKHLNLQSLRIVLDTANGAAYKVAPVVFSELGADVLVINDEPNGCNINDQCGALHPNQLSQEVKKYRADLGFAFDGDADRLVVVDNLGNIVHGDKLLGVLGVYQKSKNALSSQAVVATNMSNLALKEYLKSQDLELKHCAIGDKFVSECMQLNKANFGGEQSGHIIFSDYAKTGDGLVCALQVSALVLESKQVSSVALNPFELYPQSLVNLNVQKKPPLESLKGYSALLKELDKLEIRHLIRYSGTENKLRILLEAKDEKLLESKMQELKEFFEGHLCEGHHHHHH | soluble
11 | MGSDKIHHHHHHMTGTANYVEFEPTRMGLYEASIRVKHECPYRRISERYPDLTIREWPLSDCQVLEITTETTPTDELLDEINEIGTVLYESADDNGYHVVTQSCLCSLEDSVIDRFEEHNCLYQSPTIYRQGWEHYTVVAFDSEDVRELLDSLRSDREIELLSKTSISETQIPHSMLAPANQLFEDITDRQLAALQLALESGYYEQPRKTSLRDLAERTAVARSTYEEHLRKAENKLLTNAGQFLRLVTATSTTNPLGVESGRRTEQTAD | not soluble
12 | MKEVRIVFQPGEISVPVAAGTTIMEAMNRSGLGEDFPCGGRGKCGKCRVKVREGREDFTAIDEDHLTAQELAEGVRLACATKINRDMMVEMQSPKKLQHHILIDSAARAFHIHPHLVKVFAEIAQPSLSEHKSDWQRLQESLAGLGCSVHDLQAPLSVLRRLPDTLRESTNRVTTIVYGSQVLGVEQGDTTGTLLGMAFDIGTTTIVGYLLDLNSGRELEVVSTLNPQAQYGGDVISRITFAGKEEKGLDTLHQAVTGAMNRLIGEAVDKAGVSRTQLYGISVAANTTMHHLFLGITPRSIGMSPYVSAINQGLVVAPGELGLEINKAGRVFVLPNIAGFVGADTTAVLLASDLEKSDHVTLILDIGTNGEIVLGSKNRMVACSAAAGPAFEGAQITSGMRGADGAIDHISFDHGLSYTVIGNGRPIGICGSALLDGVAGFVELGMINKRGKFLEPEKLTHPSALKLKDRLIKYEETWAFQLVEAGQTRHGRPILITQNDIRELQLAKGAIAAGVRILQEAMGIECEDIKEVLLAGAFGNYLNPHSACVIGLIPRELESRIKTIGNAAGNGAKIALLSAQEFSRAKDLAGGVSFVELGSYPGFNTIFAQNTYFKLD | soluble
